Source: patent US20120201826A1 (NOV IMMUNE S A, published 2012)

How the values were obtained:
[1] = target: T1, recombinant human RANTES (huRANTES, Peprotech) (human, UniProt P13501 24-91); test: cell-based or functional assay
T1 sequence: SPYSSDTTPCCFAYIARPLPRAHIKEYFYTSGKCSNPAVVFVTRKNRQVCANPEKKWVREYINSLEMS

[2] = target: T2, native human RANTES produced by THP1 cells (human, UniProt P13501 24-91); test: cell-based or functional assay
T2 sequence: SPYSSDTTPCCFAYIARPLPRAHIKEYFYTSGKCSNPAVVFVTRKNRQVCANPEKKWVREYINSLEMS

[3] = target: T3, huRANTES immobilized on glycosaminoglycan (biotin labeled heparin) (human, UniProt P13501 24-91); test: ELISA: biotin-heparin on streptavidin plate, huRANTES captured on the heparin, IgG detected with anti-human IgG Fc-HRP, OD450; antibody concentration not given
T3 construct: also called huRANTES immobilized on GAG; huRANTES in the context of GAG
T3 sequence: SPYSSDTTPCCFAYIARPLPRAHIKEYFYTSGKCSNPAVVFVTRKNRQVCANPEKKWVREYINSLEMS

[4] = target: T1, recombinant human RANTES (huRANTES, …); test: cell-based or functional assay; remark: listed apart in the source

Binder	Chemotaxis IC50 (nM), 1 nM huRANTES; L1.2-hCCR5 cells; IgG1 format [1] [nM]	binding result [3]	Chemotaxis IC50 (nM); L1.2 cells expressing hCCR5, 1 nM huRANTES; scFv format [4] [nM]	also measured
4D8 scFv (scFv) QVQLVQSGAEVKKPGASVKVSCKVSGYTLNDFAMHWVRQAPGKGLEWMGGYVPEDGDTIYAQKFQGRVTMTEDTSTDTAYMELSSLRSEDTAVYYCATDPLYTPGLYVWGQGTTVTVSSSYVLTQPPSVSVAPGQTARITCGGNNIESKSVHWYQQKPGQAPVLVVYDDSDRPSGIPERFSGSNSGNTATLTISRVEAGDEADYYCQVWDSNTDHWVFGGGTKVTVL	–	–	0.08	–
5E1 scFv (scFv) QVQLVQSGAEVKKPGASVKVSCKVSGYTLNDFAMHWVRQAPGKGLEWMGGYVPEDGDTIYAQKFQGRVTMTEDTSTDTAYMELSSLRSEDTAVYYCATDYLYIPSLSYWGQGTTVTVSSSYVLTQPPSVSVAPGQTARITCGGNNIESKSVHWYQQKPGQAPVLVVYDDSDRPSGIPERFSGSNSGNTATLTISRVEAGDEADYYCQVWDSNTDHWVFGGGTKVTVL	–	–	0.2	–
2D1 scFv (scFv) QVQLVQSGAEVKKPGASVKVSCKVSGYTLNDFAMHWVRQAPGKGLEWMGGYVPEDGDTIYAQKFQGRVTMTEDTSTDTAYMELSSLRSEDTAVYYCATDPLYSGSLSYWGQGTTVTVSSSYVLTQPPSVSVAPGQTARITCGGNNIESKSVHWYQQKPGQAPVLVVYDDSDRPSGIPERFSGSNSGNTATLTISRVEAGDEADYYCQVWDSNTDHWVFGGGTKVTVL	–	–	1.3	–
6A8 scFv (scFv) QVQLVQSGAEVKKPGASVKVSCKVSGYTLNDFAMHWVRQAPGKGLEWMGGYVPEDGDTIYAQKFQGRVTMTEDTSTDTAYMELSSLRSEDTAVYYCATDPLYPPGLQPWGQGTTVTVSSSYVLTQPPSVSVAPGQTARITCGGNNIESKSVHWYQQKPGQAPVLVVYDDSDRPSGIPERFSGSNSGNTATLTISRVEAGDEADYYCQVWDSNTDHWVFGGGTKVTVL	–	–	0.94	–
E6 scFv (scFv) QVQLVQSGAEVEKPGASVKVSCRVSGYPLTEIAIHWVRQAPGKGLEWMGSFEPEDAEAIYAQRFQGRVTMTEETSANTAYMELSSLRSEDTAVYFCATDPYYASSGSNYMEVWGRGTLVTVSSNFMLTQPHSVSESPGKTVTISCTGSGGSISSNYVQWYRQRPGSAPSTVIYEDDQRPSGVPDRISGSIDSSSNSASLTISGLTTEDEADYYCHSYDGNNRWVFGGGTKLTVL	–	–	72	–
G2 scFv (scFv) QVQLVQSGAEVKKPGASVKVSCRASGYALTELSIHWVRQAPGKGLEWMGGFDPEDGETIYAQNFQGRVIMTEDTSTDTAYMELSSLKSEDTAVYYCATDLTGSRDSWGQGTLVTVSSQSVLTQPASVSGSPGQSITISCTGSRSDIGYYNYVSWYQQHPGKVPKLIIYDVTERPSGVSDRFSGSKSANTASLTISGLQAEDEADYYCSSFSSGDTFVVFGGGTKLTVL	–	–	62	–
H6 scFv (scFv) QVQLVQSGAEVKRPGASVKVSCKVSGNTLSKQSMHWVRQAPGKGFEWMGSSNPEDDETLYAKKFQGRVTMTEDTSTDTAYLELSSLRSEDTAVYYCATDSQGFYYYYGMDVWGQGTLVTVSSQSVLTQPPSVSGAPGQRVTISCTGSSSNIGADYDVHWYQQLPGTVPKLLIYDNINRPSGVPDRFSGSKSGTSASLAITGLQAEDEADYYCQSYDSSLSGVLFGGGTKVTVL	–	–	25	–
H6 antibody, IgG1 format (antibody, V domains shown) VH: QVQLVQSGAEVKRPGASVKVSCKVSGNTLSKQSMHWVRQAPGKGFEWMGSSNPEDDETLYAKKFQGRVTMTEDTSTDTAYLELSSLRSEDTAVYYCATDSQGFYYYYGMDVWGQGTLVTVSS VL: QSVLTQPPSVSGAPGQRVTISCTGSSSNIGADYDVHWYQQLPGTVPKLLIYDNINRPSGVPDRFSGSKSGTSASLAITGLQAEDEADYYCQSYDSSLSGVLFGGGTKVTVL	8.7	no binding	–	Calcium Flux IC50 (nM), 10 nM rhuRANTES; L1.2-hCCR5 cells; IgG1 format [1]: 9 nM
1D9 antibody, IgG1 format (antibody, V domains shown) VH: QVQLVQSGAEVKKPGASVKVSCKVSGYTLTEFAMHWVRQAPGKGLEWMGGFVPEDGETIYAQKFQGRVTMTEDTSTDTAYMELSSLRSEDTAVYYCATDPLYTPGLEPWGQGTTVTVSS VL: SYVLTQPPSVSVAPGQTARITCGGNNIESKSVHWYQQKPGQAPVLVVYDDSDRPSGIPERFSGSNSGNTATLTISRVEAGDEADYYCQVWDSNTDHWVFGGGTKLTVLG	0.35	–	–	Chemotaxis IC50 (nM), 0.2 nM huRANTES; L1.2-hCCR5 cells; IgG1 format [1]: 0.038 nM; Chemotaxis IC50 (nM), native huRANTES from THP1 cells; L1.2-hCCR5 cells; IgG1 format [2]: 0.033 nM
D1 antibody, IgG1 format (antibody, V domains shown) VH: EVQLVQSGPEVKKPGATVKISCNVSAETFTDYYIHWVKQAPGRGLEWMGLVDSEEDGETLFAETFRGRVALTADRSTNTAYMELRSLRHDDTAVYYCAAEYGEYGFFQSWGQGTLVTVSS VL: QSVLTQPPSVSGAPGQRVTISCTGSSSNIGADYDVNWYQQLPGTSPKLLIYGDINRPSGVPDRFSASKSGTSASLAITGLQAEDEADYYCQSFDNSLSGSVIFGGGTKLTVL	7	no binding	–	–

The next lines start with results.

Chemotaxis IC50 (nM), 1 nM huRANTES; L1.2-hCCR5 cells; IgG1 format [1] [nM]	binding result [3]	Chemotaxis IC50 (nM); L1.2 cells expressing hCCR5, 1 nM huRANTES; scFv format [4] [nM]	Binder	also measured
2.1	–	–	C8 antibody, IgG1 format (antibody, V domains shown) VH: QVQLVESGGGVVQPGRSLRLSCAASGFTFSSYAMHWVRQAPGKGLEWVAVISYDGSNKYYADSVKGRFTISRDNSKNTLYLQMNSLRAEDTAVYYCARETFPHYYYYYMDVWGRGTLVTVSS VL: SYVLTQPPSVSVAPGQTARITCEGDDTDIGTVNWYQQKPGQAPVLVISEDGYRPSGIPERFSGSNSGNTATLTISRVEAGDEADYYCQFWDVDSDHPVFGGGTQLTVLG	Chemotaxis IC50 (nM), 0.2 nM huRANTES; L1.2-hCCR5 cells; IgG1 format [1]: 0.49 nM; Chemotaxis IC50 (nM), native huRANTES from THP1 cells; L1.2-hCCR5 cells; IgG1 format [2]: 1.6 nM
4.8	no binding	–	CG11 antibody, IgG1 format (antibody, V domains shown) VH: QVQLVQSGTEVKKPGATVNVSCKISGHLFTDYYIHWVQQAPGKGLEWVGLIDPKDGEIQYAEKFQARVTITADTSTDTVYMELNSLRSEDTAVYYCATEVLSGIRVFPFDPWGQGTLVTVSS VL: QSVLTQPPSVSGAPGQRVTISCTGSSSNIGAGYDVYWYQQFPGKAPKLLIYDTNNRPPGVPDRFSGSKSGTSASLAISGLQTEDEADYYCQSYDIALSNSNVVFGGGTKLTVL	Calcium Flux IC50 (nM), 10 nM rhuRANTES; L1.2-hCCR5 cells; IgG1 format [1]: 9.5 nM
–	–	9.4	E10 scFv (scFv) QVQLVESGGGVVQPGRSLRLSCAASGFTFSSYAMHWVRQAPGKGLEWVAVISYDGSNKYYADSVKGRFSISRDNSKNTLYLQMNSLRAEDTAVYYCARETFPHYYYYYMDVWGKGTMVTVSSSYVLTQPPSVSVAPGQTARISCGGGNFDDEGVHWYQQTPGQAPVLVVYDDTGRPSGIPERFSGSSSGNTATLTISRVEAGDEADYYCQAWDSSNDHPVFGGGTQLTVL	–
–	–	1.6	7B5 scFv (scFv) QVQLVQSGAEVKKPGASVKVSCKVSGYTLNDFAMHWVRQAPGKGLEWMGGYVPEDGDTIYAQKFQGRVTMTEDTSTDTAYMELSSLRSEDTAVYYCATDPLYSGSLSYWGQGTTVTVSSSYVLTQPPSVSVAPGQTARITCGGNNIESKSVHWYQQKPGQAPVLVVYDDSDRPSGIPERFSGSNSGNTATLTISRVEAGDEADYYCQVWDSGPVWWIFGGGTKLTVL	–
1.3	no binding	–	H11 antibody, IgG1 format (antibody, V domains shown) VH: QVQLVQSGAEVKKPGSSVKVSCKASGGISDNYALSWVRQAPGQGLEWMGGFIPLVDTTNYAQRFQGRLTITADDSMSTVYMELRSLRSDDTAMYYCAREQVAVGPGPTSDRGPDGLDVWGQGTMVTVSS VL: QSVLTQPSSVSGAPGHRVTISCTGSNSNLGADYDVHWYQQLPGSAPKLLIYDNNIRPSGVPARFSGSKSGTSASLAITGLQAEDEADYYCQSYDTGLTSSDVIFGGGTKLTVL	–
1	no binding	–	A9 antibody, IgG1 format (antibody, V domains shown) VH: not shown VL: NFMLTQPHSVSESPGKTVTISCTRSSGSIADNYVQWYQQRPGSAPTTIIYDDDQRLSGVPDRFSGSIDTSSNSASLSISGLRTEDEADYYCQSYDDSNDVFGGGTKLTVL	Calcium Flux IC50 (nM), 10 nM rhuRANTES; L1.2-hCCR5 cells; IgG1 format [1]: 3.3 nM
2.2	no binding	–	E7 antibody, IgG1 format (antibody, V domains shown) VH: QVQLVQSGAEVKKPGSSVKVSCKISGGISDNYALSWVRQAPGQGLEWMGAVIPLVETTSYAQRFQGRLTITADDSLNTLYMELGSLRSDDTAMYYCAREQVAVGPGPTSNRGPDGLDVWGRGTMVTVSS VL: QSVLTQPPSVSGAPGQRVTISCTGSSSNIGDGYDVHWYQQLPGTAPKLLIYGNSNRPSGVPDRFSGSTSGTSASLAIRGLQSEDEADYYCGTWDDILNGWVFGGGTKLTVL	–
